Assay results: PMC8215385, “Design of a Proteolytically Stable Sodium-Calcium Exchanger 1 Activator Peptide for In Vivo Studies” (Frontiers in Pharmacology, 2021)
Non-standard residues stand in square brackets, D forms with d. No end group written: not given here. *: point of attachment. Biotin = O=C1N[C@H]2[C@H](CS[C@H]2CCCCC(=O)*)N1; NMePro = CN1CCC[C@H]1C(=O)*; Ahx = NCCCCCC(=O)O

T1: pSer68-PLMcyt (Mus musculus, UniProt Q9Z239)
T1 construct: purchased Genscript; host or cells: synthetic peptide
T1 sequence (Q9Z239 58-92 limits assumed): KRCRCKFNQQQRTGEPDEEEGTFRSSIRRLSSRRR

T2: OPT with three amino acids deleted at its N-terminus
T2 construct: source: synthetic peptide, spot-synthesised on cellulose membrane
T2 peptide: YKEIEQLIELANYQVLS

T3: OPT with two amino acids deleted at its C-terminus
T3 construct: C-terminus'; source: synthetic peptide, spot-synthesised on cellulose membrane
T3 peptide: YHPYKEIEQLIELANYQV

T4: mini-OPT
T4 construct: residues 3-18 of OPT; source: synthetic peptide, spot-synthesised on cellulose membrane
T4 peptide: PYKEIEQLIELANYQV

B1: biotin-ahx-pSer68-PLMcyt (peptide)
peptide: {Biotin-Ahx}-KRCRCKFNQQQRTGEPDEEEGTFRSSIRRLSSRRR
modifications: also: phosphoserine at Ser68 (numbering not mappable from notes)
notes: cytoplasmic part of phospholemman (PLM, FXYD1), printed as [residues removed]; Immobilised on SA chips (SPR) and used as overlay probe on the peptide arrays; also called biotin-pSer68-PLM; biotin-pSer68-PLMcyt; source: synthetic peptide (Genscript, >80% purity)
B2: NOPT-TAT (peptide)
peptide: [NMePro]YKEIEQLIELANYQVRKKRRQRRR
notes: also called TAT-conjugated NOPT; cell-permeable NOPT; source: synthetic peptide (Genscript, >80% purity)

Experiments:
pSer68-PLMcyt = biological target: T1, pSer68-PLMcyt; assay: Peptide array overlay with biotin-pSer68-PLM; type: binding; conditions: membrane-synthesized peptides overlaid with 5 μM biotin-pSer68-PLM, anti-biotin-HRP
Excerpt: Peptides on cellulose membranes were synthesized using a Multipep automated peptide synthesizer (INTAVIS Bioanalytical Instruments AG, Koeln, Germany) ([Frank, 1992], [Frank, 2002]). Peptides in solution were synthesized (listed below) at >80% purity by Genscript (Corporation, Piscataway, NJ, United States). For some of the peptides a cell-permeable TAT ([…]) or a biotin tag was included at either N- or C-terminus with or without an ahx-linker in between to avoid any potential steric hindrance.
Peptide array membranes were blocked in 1% casein for 2–4 h and overlaid with 5 μM of biotinylated pSer68-PLM peptide in 1% casein overnight at 4°C. The membranes were then washed three times for 10 min in TBS-T before incubation with anti-biotin-horseradish peroxidase (HRP) for 1 h (see Antibodies and Recombinant Protein). Peptide-bound spots were detected as described in the immunoblotting section.

biotin-ahx-PLMcyt = assay: SPR; Biacore X100; biotinylated pSer68-PLMcyt or PLMcyt immobilised on SA chip (~50-200 RU); His-TF-NCX1cyt dialysed into running buffer injected at a range of concentrations (single cycles), 30 or 100 ul/min, 180 s, dissociation 600 s; 1:1 (Langmuir) fit
biotin-ahx-pSer68-PLMcyt [1] = biological target: B1; assay: as above
[2] = system: adult mouse cardiomyocytes; assay: Ca2+ transients and SR Ca2+ load in isolated adult cardiomyocytes; type: cell-based; conditions: 1 μM, vs scrambled control
Description: (§1) 8 weeks old C57BL6/J mice were randomized to SHAM or an aortic banding (AB) operation using o-rings (ORAB) as previously described ([Melleby et al., 2018]). Mice were anesthetized in a combination of 5% isoflurane and 95% O2, before endotracheal intubation and ventilation using a MiniVent rodent ventilator (Harvard Apparatus, United States). Left sided hemothoracotomy in the third intercostal space was performed, before dissection and placement of the o-ring around the ascending aorta. Animals were allowed to recover, and post-operative analgesia was achieved by injections of buprenorphine in accordance with the institutional guidelines. Animal experiments was approved by the Norwegian National Animal Research Committee (FDU 7040).
Cardiomyocytes were isolated based on a similar protocol as recently described ([Ackers-Johnson et al., 2016]). Mice were anesthetized and mask ventilated with a combination of 3% isoflurane and 97% O2. Deep surgical anesthesia was confirmed by abolished pain reflexes. […] Then 7 ml of buffer A (in mM: HEPES 25, NaCl 130, KCl 5.4, NaH2PO4 0.4, MgCl2 0.5, D-glucose 22, pH 7.4) with 5 mM EDTA was injected into the right ventricle. Thereafter, the aorta was clamped and the heart was excised. 10 ml of the buffer solution and thereafter 3 ml of the buffer solution without EDTA were injected into the left ventricle over 2–5 min. Then preheated solution A containing 0.8 mg/ml collagenase II was injected into the left ventricle over ∼20 min. The atria and right ventricle were removed, and the cardiomyocytes were isolated according to the same procedure as described for the Langendorff-based isolation of rat cardiomyocytes (described further below).
Isolated cardiomyocytes were loaded for 10 min with 5 μM fluo-4 AM ester (Molecular Probes, Eugene, OR, United States) at RT. The superfusate contained (mM): NaCl 140, HEPES 5, KCl 5.4, CaCl2 1, MgCl2 0.5, D-glucose 5.5 and NaH2PO4 0.4. The pH was adjusted to 7.4. […] Whole-cell Ca^2+ transients were recorded in field stimulated cardiomyocytes at 0.5 Hz (2.5 ms bipolar pulses) and 37°C with Cairn Research Optoscan Monochromator (excitation 485 nm, emission 515 nm long pass) (Cairn Research Ltd., United Kingdom). Regular Ca^2+ transients were recorded for at least 3 min per cell, before the field stimulation was stopped and 10 mM caffeine was added. Background fluorescence was recorded for each cell. Ca^2+ transients amplitude and SR Ca^2+ load was calculated as maximal fluorescence (F) divided on resting fluorescence (F0) on field stimulated and caffeine evoked Ca^2+ transients, respectively (See Figure 4I for illustration of protocol details). […] The NCX rate constant was calculated as: 1/τcaff ([Díaz et al., 1997]), as the non SERCA2, non-NCX mediated Ca^2+ removal was considered negligible.

NCX1 = assay: NCX activity (NCX rate constant, 1/τcaff) in isolated adult cardiomyocytes; type: cell-based, mouse; conditions: 1 μM, vs TAT-tagged scrambled control
Description: as §1, with “Animal experiments was approved by the Norwegian National Animal Research Committee (FDU 7040).” left out
Isolated cardiomyocytes were loaded for 10 min with 5 μM fluo-4 AM ester (Molecular Probes, Eugene, OR, United States) at RT. […] Whole-cell Ca^2+ transients were recorded in field stimulated cardiomyocytes at 0.5 Hz (2.5 ms bipolar pulses) and 37°C with Cairn Research Optoscan Monochromator (excitation 485 nm, emission 515 nm long pass) (Cairn Research Ltd., United Kingdom). Regular Ca^2+ transients were recorded for at least 3 min per cell, before the field stimulation was stopped and 10 mM caffeine was added. Background fluorescence was recorded for each cell. […] The NCX rate constant was calculated as: 1/τcaff ([Díaz et al., 1997]), as the non SERCA2, non-NCX mediated Ca^2+ removal was considered negligible.

[3] = biological target: T2, OPT with three amino acids deleted at …; assay: peptide or protein array; peptides spot-synthesised on cellulose membranes, blocked in 1% casein, overlaid with 5 uM biotinylated pSer68-PLM peptide in 1% casein overnight at 4°C; detected with anti-biotin-HRP; conditions: both partners purified
[4] = biological target: T3, OPT with two amino acids deleted at its …; assay: as above; conditions: both partners purified
mini-OPT = biological target: T4, mini-OPT; assay: as above; conditions: both partners purified
biotin-ahx-pSer68-PLMcyt [5] = biological target: B1; assay: SPR; conditions: both partners purified

## E6G: E6G substitution of mini-OPT on the peptide array; negative control in pull down (PYKEIGQLIELANYQV)
pSer68-PLMcyt
  pSer68-PLM binding on peptide array: abolished pSer68-PLM binding

## HIS-TF-NCX1cyt (domain or fragment)
biotin-ahx-PLMcyt
  Kd: 4.1 nM
  koff: 0.004 s⁻¹
  kon: 1.1e+06 M⁻¹ s⁻¹
biotin-ahx-pSer68-PLMcyt [1]
  Kd: 4.3 nM
  koff: 0.0011 s⁻¹
  kon: 380000 M⁻¹ s⁻¹

## NOPT-TAT: NOPT made cell permeable by addition of a TAT tag to its C-terminus ([NMePro]YKEIEQLIELANYQVRKKRRQRRR)
[2]; HF cardiomyocytes
  Ca2+ transient amplitude: did not change
  sarcoplasmic reticulum (SR) Ca2+ load: did not change
[2]; SHAM cardiomyocytes
  Ca2+ transient amplitude: did not change
  sarcoplasmic reticulum (SR) Ca2+ load: did not change
NCX1; cardiomyocytes from SHAM-operated mice, 10–13 cells from three mice
  increase of NCX1 activity (NCX1 rate constant): approximately 40%
NCX1; cardiomyocytes from aorta banded HF mice, 6–7 cells from three mice
  increase of NCX1 activity (NCX1 rate constant): approximately 60%

## PYKEIEQLIELANYQV [mini-OPT]
pSer68-PLMcyt
  pSer68-PLM binding on peptide array: minimum sequence that was required to bind pSer68-PLMcyt

## Y14A: Y14A substitution of mini-OPT on the peptide array; negative control in pull down (PYKEIEQLIELANAQV)
pSer68-PLMcyt
  pSer68-PLM binding on peptide array: abolished pSer68-PLM binding

## B1
[3]
  binding result: binds
[4]
  binding result: binds
mini-OPT
  binding result: binds

## B2
biotin-ahx-pSer68-PLMcyt [5]
  Kd: 129 nM
